Assay results as given in publication PMC1226315 (Nucleic Acids Research, 2005).

Target: human wild-type Cdk2 GST fusion protein (human, UniProt P24941 1-298)
Experiment: pull-down

B1: Recombinant human wild-type DNA polymerase λ, His-tagged (enzyme)
chain: MDPRGILKAFPKRQKIHADASSKVLAKIPRREEGEEAEEWLSSLRAHVVRTGIGRARAELFEKQIVQHGGQLCPAQGPGVTHIVVDEGMDYERALRLLRLPQLPPGAQLVKSAWLSLCLQERRLVDVAGFSIFIPSRYLDHPQPSKAEQDASIPPGTHEALLQTALSPPPPPTRPVSPPQKAKEAPNTQAQPISDDEASDGEETQVSAADLEALISGHYPTSLEGDCEPSPAPAVLDKWVCAQPSSQKATNHNLHITEKLEVLAKAYSVQGDKWRALGYAKAINALKSFHKPVTSYQEACSIPGIGKRMAEKIIEILESGHLRKLDHISESVPVLELFSNIWGAGTKTAQMWYQQGFRSLEDIRSQASLTTQQAIGLKHYSDFLERMPREEATEIEQTVQKAAQAFNSGLLCVACGSYRRGKATCGDVDVLITHPDGRSHRGIFSRLLDSLRQEGFLTDDLVSQEENGQQQKYLGVCRLPGPGRRHRRLDIIVVPYSEFACALLYFTGSAHFNRSMRALAKTKGMSLSEHALSTAVVRNTHGCKVGPGRVLPTPTEKDVFRLLGLPYREPAERDW
B1: binds.
